Reference: US20220204580A1 (AstraZeneca / MedImmune, published 2022)
One block for each binder: values may come before it. Numbered stars: 1 amine (or outer) side, 2 acyl side, 3 side chain; on linkers, the order of the positions; unused ones are H or OH. Bridge positions count the residues as written; N and C are the ends. Square brackets hold non-standard residues; d marks the D form. Side chains are listed from the residue outwards. Ends that are not written are not given here. * marks the point of attachment. C18 diacid = O=C(O)CCCCCCCCCCCCCCCCC(=O)*; γGlu = O=C(O)[C@H](CCC(=O)[*:2])N[*:1]; Aib = CC(C)(N)C(=O)O

Columns and labels:
[1] = molecular target: T1, human amylin receptor (calcitonin receptor co-expressed with receptor activity modifying protein, RAMP3) (human, UniProt P30988 25-474; O60896 24-148); test: cell-based or functional assay
T1 sequence (looked up) 1: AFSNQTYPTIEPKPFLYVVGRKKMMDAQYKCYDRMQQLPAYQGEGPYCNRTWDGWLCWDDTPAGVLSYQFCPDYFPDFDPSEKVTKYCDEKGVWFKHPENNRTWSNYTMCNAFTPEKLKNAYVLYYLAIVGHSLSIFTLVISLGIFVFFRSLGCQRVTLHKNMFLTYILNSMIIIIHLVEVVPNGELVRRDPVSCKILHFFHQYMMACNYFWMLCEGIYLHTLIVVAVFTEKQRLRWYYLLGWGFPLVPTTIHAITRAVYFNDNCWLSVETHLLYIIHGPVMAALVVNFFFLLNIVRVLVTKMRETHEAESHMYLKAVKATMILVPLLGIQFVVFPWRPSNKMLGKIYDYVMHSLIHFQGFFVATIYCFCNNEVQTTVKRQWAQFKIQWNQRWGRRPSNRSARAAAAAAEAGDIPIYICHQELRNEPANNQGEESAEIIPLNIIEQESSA
T1 sequence (looked up) 2: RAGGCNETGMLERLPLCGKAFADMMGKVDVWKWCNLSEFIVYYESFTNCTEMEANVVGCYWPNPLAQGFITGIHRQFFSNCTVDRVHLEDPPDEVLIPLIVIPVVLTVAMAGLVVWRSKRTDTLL

[2] = molecular target: T2, human calcitonin receptor (human, UniProt P30988 25-474); test: cell-based or functional assay
T2 sequence (looked up): T1 sequence (looked up) 1

B1: Peptide 134 (SEQ ID NO: 134) (peptide)
peptide: K([γGlu-C18 diacid])KCNTATCATQRLANFL[Aib]HSSNNFGPILPPTPVGSNTY-NH2
modifications: disulfide 3-8; N-terminus assumed
SMILES: CC[C@H](C)[C@H](NC(=O)[C@@H]1CCCN1C(=O)CNC(=O)[C@H](Cc1ccccc1)NC(=O)[C@H](CC(N)=O)NC(=O)[C@H](CC(N)=O)NC(=O)[C@H](CO)NC(=O)[C@H](CO)NC(=O)[C@H](Cc1c[nH]cn1)NC(=O)C(C)(C)NC(=O)[C@H](CC(C)C)NC(=O)[C@H](Cc1ccccc1)NC(=O)[C@H](CC(N)=O)NC(=O)[C@H](C)NC(=O)[C@H](CC(C)C)NC(=O)[C@H](CCCNC(=N)N)NC(=O)[C@H](CCC(N)=O)NC(=O)[C@@H](NC(=O)[C@H](C)NC(=O)[C@@H]1CSSC[C@H](NC(=O)[C@H](CCCCN)NC(=O)[C@@H](N)CCCCNC(=O)CC[C@H](NC(=O)CCCCCCCCCCCCCCCCC(=O)O)C(=O)O)C(=O)N[C@@H](CC(N)=O)C(=O)N[C@@H]([C@@H](C)O)C(=O)N[C@@H](C)C(=O)N[C@@H]([C@@H](C)O)C(=O)N1)[C@@H](C)O)C(=O)N[C@@H](CC(C)C)C(=O)N1CCC[C@H]1C(=O)N1CCC[C@H]1C(=O)N[C@H](C(=O)N1CCC[C@H]1C(=O)N[C@H](C(=O)NCC(=O)N[C@@H](CO)C(=O)N[C@@H](CC(N)=O)C(=O)N[C@H](C(=O)N[C@@H](Cc1ccc(O)cc1)C(N)=O)[C@@H](C)O)C(C)C)[C@@H](C)O
EC50 (cAMP production) [1]: 0.281 nM
Ratio (EC50 hCTR / EC50 hAMYR3) [1]: 7.9
EC50 (cAMP production) [2]: 2.22 nM

B2: Peptide 137 (SEQ ID NO: 137) (peptide)
peptide: K([γGlu-C18 diacid])KCNTATCATQRLANFL[Aib]HSSRNFGPILPPTNVGSNTY-NH2
modifications: disulfide 3-8; N-terminus assumed
SMILES: CC[C@H](C)[C@H](NC(=O)[C@@H]1CCCN1C(=O)CNC(=O)[C@H](Cc1ccccc1)NC(=O)[C@H](CC(N)=O)NC(=O)[C@H](CCCNC(=N)N)NC(=O)[C@H](CO)NC(=O)[C@H](CO)NC(=O)[C@H](Cc1c[nH]cn1)NC(=O)C(C)(C)NC(=O)[C@H](CC(C)C)NC(=O)[C@H](Cc1ccccc1)NC(=O)[C@H](CC(N)=O)NC(=O)[C@H](C)NC(=O)[C@H](CC(C)C)NC(=O)[C@H](CCCNC(=N)N)NC(=O)[C@H](CCC(N)=O)NC(=O)[C@@H](NC(=O)[C@H](C)NC(=O)[C@@H]1CSSC[C@H](NC(=O)[C@H](CCCCN)NC(=O)[C@@H](N)CCCCNC(=O)CC[C@H](NC(=O)CCCCCCCCCCCCCCCCC(=O)O)C(=O)O)C(=O)N[C@@H](CC(N)=O)C(=O)N[C@@H]([C@@H](C)O)C(=O)N[C@@H](C)C(=O)N[C@@H]([C@@H](C)O)C(=O)N1)[C@@H](C)O)C(=O)N[C@@H](CC(C)C)C(=O)N1CCC[C@H]1C(=O)N1CCC[C@H]1C(=O)N[C@H](C(=O)N[C@@H](CC(N)=O)C(=O)N[C@H](C(=O)NCC(=O)N[C@@H](CO)C(=O)N[C@@H](CC(N)=O)C(=O)N[C@H](C(=O)N[C@@H](Cc1ccc(O)cc1)C(N)=O)[C@@H](C)O)C(C)C)[C@@H](C)O
EC50 (cAMP production) [1]: 0.238 nM
Ratio (EC50 hCTR / EC50 hAMYR3) [1]: 6.3
EC50 (cAMP production) [2]: 1.5 nM

B3: Peptide 133 (SEQ ID NO: 133) (peptide)
peptide: K([γGlu-C18 diacid])KCNTATCATQRLANFL[Aib]HSSSNFGPILPPTNVGSNTY-NH2
modifications: disulfide 3-8; N-terminus assumed
SMILES: CC[C@H](C)[C@H](NC(=O)[C@@H]1CCCN1C(=O)CNC(=O)[C@H](Cc1ccccc1)NC(=O)[C@H](CC(N)=O)NC(=O)[C@H](CO)NC(=O)[C@H](CO)NC(=O)[C@H](CO)NC(=O)[C@H](Cc1c[nH]cn1)NC(=O)C(C)(C)NC(=O)[C@H](CC(C)C)NC(=O)[C@H](Cc1ccccc1)NC(=O)[C@H](CC(N)=O)NC(=O)[C@H](C)NC(=O)[C@H](CC(C)C)NC(=O)[C@H](CCCNC(=N)N)NC(=O)[C@H](CCC(N)=O)NC(=O)[C@@H](NC(=O)[C@H](C)NC(=O)[C@@H]1CSSC[C@H](NC(=O)[C@H](CCCCN)NC(=O)[C@@H](N)CCCCNC(=O)CC[C@H](NC(=O)CCCCCCCCCCCCCCCCC(=O)O)C(=O)O)C(=O)N[C@@H](CC(N)=O)C(=O)N[C@@H]([C@@H](C)O)C(=O)N[C@@H](C)C(=O)N[C@@H]([C@@H](C)O)C(=O)N1)[C@@H](C)O)C(=O)N[C@@H](CC(C)C)C(=O)N1CCC[C@H]1C(=O)N1CCC[C@H]1C(=O)N[C@H](C(=O)N[C@@H](CC(N)=O)C(=O)N[C@H](C(=O)NCC(=O)N[C@@H](CO)C(=O)N[C@@H](CC(N)=O)C(=O)N[C@H](C(=O)N[C@@H](Cc1ccc(O)cc1)C(N)=O)[C@@H](C)O)C(C)C)[C@@H](C)O
EC50 (cAMP production) [1]: 0.378 nM
Ratio (EC50 hCTR / EC50 hAMYR3) [1]: 6.8
EC50 (cAMP production) [2]: 2.58 nM

B4: Peptide 136 (SEQ ID NO: 136) (peptide)
peptide: K([γGlu-C18 diacid])KCNTATCATQRLANFL[Aib]HSSNNFGPILPPTNVGSNTP-NH2
modifications: disulfide 3-8; N-terminus assumed
SMILES: CC[C@H](C)[C@H](NC(=O)[C@@H]1CCCN1C(=O)CNC(=O)[C@H](Cc1ccccc1)NC(=O)[C@H](CC(N)=O)NC(=O)[C@H](CC(N)=O)NC(=O)[C@H](CO)NC(=O)[C@H](CO)NC(=O)[C@H](Cc1c[nH]cn1)NC(=O)C(C)(C)NC(=O)[C@H](CC(C)C)NC(=O)[C@H](Cc1ccccc1)NC(=O)[C@H](CC(N)=O)NC(=O)[C@H](C)NC(=O)[C@H](CC(C)C)NC(=O)[C@H](CCCNC(=N)N)NC(=O)[C@H](CCC(N)=O)NC(=O)[C@@H](NC(=O)[C@H](C)NC(=O)[C@@H]1CSSC[C@H](NC(=O)[C@H](CCCCN)NC(=O)[C@@H](N)CCCCNC(=O)CC[C@H](NC(=O)CCCCCCCCCCCCCCCCC(=O)O)C(=O)O)C(=O)N[C@@H](CC(N)=O)C(=O)N[C@@H]([C@@H](C)O)C(=O)N[C@@H](C)C(=O)N[C@@H]([C@@H](C)O)C(=O)N1)[C@@H](C)O)C(=O)N[C@@H](CC(C)C)C(=O)N1CCC[C@H]1C(=O)N1CCC[C@H]1C(=O)N[C@H](C(=O)N[C@@H](CC(N)=O)C(=O)N[C@H](C(=O)NCC(=O)N[C@@H](CO)C(=O)N[C@@H](CC(N)=O)C(=O)N[C@H](C(=O)N1CCC[C@H]1C(N)=O)[C@@H](C)O)C(C)C)[C@@H](C)O
EC50 (cAMP production) [1]: 0.122 nM
Ratio (EC50 hCTR / EC50 hAMYR3) [1]: 0.8
EC50 (cAMP production) [2]: 0.101 nM

Results, then the binder that gave them:

EC50 (cAMP production) [1]: 0.296 nM
Ratio (EC50 hCTR / EC50 hAMYR3) [1]: 1.2
EC50 (cAMP production) [2]: 0.345 nM
B5: Peptide 135 (SEQ ID NO: 135) (peptide)
peptide: K([γGlu-C18 diacid])KCNTATCATQRLANFL[Aib]HSSNHFGPILPPTNVGSNTY-NH2
modifications: disulfide 3-8; N-terminus assumed
SMILES: CC[C@H](C)[C@H](NC(=O)[C@@H]1CCCN1C(=O)CNC(=O)[C@H](Cc1ccccc1)NC(=O)[C@H](Cc1c[nH]cn1)NC(=O)[C@H](CC(N)=O)NC(=O)[C@H](CO)NC(=O)[C@H](CO)NC(=O)[C@H](Cc1c[nH]cn1)NC(=O)C(C)(C)NC(=O)[C@H](CC(C)C)NC(=O)[C@H](Cc1ccccc1)NC(=O)[C@H](CC(N)=O)NC(=O)[C@H](C)NC(=O)[C@H](CC(C)C)NC(=O)[C@H](CCCNC(=N)N)NC(=O)[C@H](CCC(N)=O)NC(=O)[C@@H](NC(=O)[C@H](C)NC(=O)[C@@H]1CSSC[C@H](NC(=O)[C@H](CCCCN)NC(=O)[C@@H](N)CCCCNC(=O)CC[C@H](NC(=O)CCCCCCCCCCCCCCCCC(=O)O)C(=O)O)C(=O)N[C@@H](CC(N)=O)C(=O)N[C@@H]([C@@H](C)O)C(=O)N[C@@H](C)C(=O)N[C@@H]([C@@H](C)O)C(=O)N1)[C@@H](C)O)C(=O)N[C@@H](CC(C)C)C(=O)N1CCC[C@H]1C(=O)N1CCC[C@H]1C(=O)N[C@H](C(=O)N[C@@H](CC(N)=O)C(=O)N[C@H](C(=O)NCC(=O)N[C@@H](CO)C(=O)N[C@@H](CC(N)=O)C(=O)N[C@H](C(=O)N[C@@H](Cc1ccc(O)cc1)C(N)=O)[C@@H](C)O)C(C)C)[C@@H](C)O

EC50 (cAMP production) [1]: 0.612 nM
Ratio (EC50 hCTR / EC50 hAMYR3) [1]: 4.1
EC50 (cAMP production) [2]: 2.51 nM
B6: Peptide 138 (SEQ ID NO: 138) (peptide)
peptide: K([γGlu-C18 diacid])KCNTATCATQRLANFL[Aib]HSSPNFGPILPPTEVGSNTY-NH2
modifications: disulfide 3-8; N-terminus assumed
SMILES: CC[C@H](C)[C@H](NC(=O)[C@@H]1CCCN1C(=O)CNC(=O)[C@H](Cc1ccccc1)NC(=O)[C@H](CC(N)=O)NC(=O)[C@@H]1CCCN1C(=O)[C@H](CO)NC(=O)[C@H](CO)NC(=O)[C@H](Cc1c[nH]cn1)NC(=O)C(C)(C)NC(=O)[C@H](CC(C)C)NC(=O)[C@H](Cc1ccccc1)NC(=O)[C@H](CC(N)=O)NC(=O)[C@H](C)NC(=O)[C@H](CC(C)C)NC(=O)[C@H](CCCNC(=N)N)NC(=O)[C@H](CCC(N)=O)NC(=O)[C@@H](NC(=O)[C@H](C)NC(=O)[C@@H]1CSSC[C@H](NC(=O)[C@H](CCCCN)NC(=O)[C@@H](N)CCCCNC(=O)CC[C@H](NC(=O)CCCCCCCCCCCCCCCCC(=O)O)C(=O)O)C(=O)N[C@@H](CC(N)=O)C(=O)N[C@@H]([C@@H](C)O)C(=O)N[C@@H](C)C(=O)N[C@@H]([C@@H](C)O)C(=O)N1)[C@@H](C)O)C(=O)N[C@@H](CC(C)C)C(=O)N1CCC[C@H]1C(=O)N1CCC[C@H]1C(=O)N[C@H](C(=O)N[C@@H](CCC(=O)O)C(=O)N[C@H](C(=O)NCC(=O)N[C@@H](CO)C(=O)N[C@@H](CC(N)=O)C(=O)N[C@H](C(=O)N[C@@H](Cc1ccc(O)cc1)C(N)=O)[C@@H](C)O)C(C)C)[C@@H](C)O
